Measurements taken from article PMC7835275.

Key:
[1] = molecular target: His-tagged DVB1, full length, from E. coli (rice (Oryza sativa L.)); test: native gel or EMSA; Native-PAGE of the purified His-tagged protein, immunoblot with a His-tag antibody; SDS-PAGE beside it
[2] = molecular target: His-tagged DVB1^G90E, full length, from E. coli (rice (Oryza sativa L.)); test: as above

stoichiometry N [1] | stoichiometry N [2] | Substance
2 | – | His-tagged DVB1, full length, from E. coli (natural protein)
– | 2 | His-tagged DVB1^G90E, full length, from E. coli (natural protein)
